Residue numbers refer to the chain shown, from its start.
B1: Nb8198 (VHH)
VHH: QVQLQESGGGLVQTGDSLRLSCAGAERSFNSYTMGWFRQAPGKEREFVAAIAFSGGFTYYAEAVKGRFTISRDSGKNTVYLQMNSLKPEDTAVYYCAARFYGGGYYYQQREYSFWGQGTQVTVSS
notes: source: E. coli WK6, periplasm, purified (Ni-NTA)
B2: Nb8200 (VHH)
VHH: QVQLQESGGGLVQAGDSLRLSCAASGRTFSGYIMAWFRQTPGKERELVARLGPSSSIQYYRDSVKGRFTLSRDNAKNTLYLQMNSLKPEDTAVYYCAFTLKWSSDYRSHNAYDYWGQGTQVTVSS
notes: as for B1
B3: Nb8190 (VHH)
VHH: QVQLQESGGGLVQAGGSLRLSCAASGRSLSDYTMGWFRQAPGKEREFVTAITSDGVYANYADSVKGRFTISRDNAKNTAYLQMNSLKPEDTAVYYCAGKTRRSMLMTTGYDYWGQGTQVTVSS
notes: as for B1
B4: Nb8209 (VHH)
VHH: QVQLQESGGGLVQPGGSLRLSCAASGNIRSINTMSWYRQAPGKERELVASDSTGGSTGGSTVYAASVKGRFTISRDNAKNTVYLQMNMLKPEDTAVYYCYVYGMSRFGSTISTLFGQGTQVTVSS
notes: as for B1
B5: Nb8199 (VHH)
VHH: QVQLQESGGGLVQAGGSLRLSCAASGRTFSSYAMGWFRQAPGKEREFVGAIDLSGLYKHYGDSVKGRFTISRDNAKNTVYLQMSSLKPEDTAVYYCAAAGIYYAGSYSPLLYDYWGQGTQVTVSS
notes: as for B1
B6: Nb8202 (VHH)
VHH: QVQLQESGGGLVQAGESLRLSCAASGGTFIYYGMGWFRQAPGKEREFVASISQTGGDIYAMDFVKGRFTISRDNSKNTLYLQMNSLKPEDTAVYYCAAATSPYASRKLYEYKYWGQGTQVTVSS
notes: as for B1
B7: Nb8210 (VHH)
VHH: B6 VHH with F29L, T54A, M83L, S85T, E110D
notes: as for B1
B8: Nb8196 (VHH)
VHH: QVQLQESGGGLVQAGDSLRLSCTTSGSSLSRYGVGWFRQAPGEEREFGASISWNGATYYADSVKGRFTISRDNAKNTVYLQMNSLKAEDTAVYYCAARSDGYLTPYLSPVYWGQGTQVTVSS
notes: as for B1
B9: Nb8204 (VHH)
VHH: QVQLQESGGGLVQPRGSLRLSCAASGSIAIIYTMGWYRQAPLKERELVATVTYGGNTNYADPVKGRFTISRDNNKNTEYLQMSSLQPEDTAVYYCYMRVRSTAWDTDDYWGQGTQVTVSS
notes: as for B1
B10: Nb8203 (VHH)
VHH: QVQLQESGGGLVQAGGSLRLSCAAPGRILTLSRYVMGWFRQAPGKEREFVAAISPGTTDTDYADSVKGRFTISRDNAKNTVYLEMSSLKPEDTAVYVCAAGAASSGTVYRVYGLYNYRGQGTQVTVSS
B11: Nb8201 (VHH)
VHH: QVQLQESGGGLVQPGGSLRLSCAASGSDFSLYAMGWYRQVPGKERELVATITIGGTTNFADSARGRFTISRGNAKNTVYLQMNNLKPEDTAVYYCWSRGSYGRYLETWGQGTQVTVSS
notes: as for B1
B12: Nb8189 (VHH)
VHH: B11 VHH with I53S
notes: as for B1
B13: Nb8191 (VHH)
VHH: QVQLQESGGGLVQPGGSLRLSCTASESVASINIVGWYRQISGKERELVARISSGGTITDYSDSVKGRFTITRDNTKNTVYLQMNSLKRGDTAVYYCNAEYQYGSDWFHIWGQGTQVTVSS
notes: as for B1
B14: Nb8192 (VHH)
VHH: QVQLQESGGGLVQAGASLRLSCAASGRTFMGWFRQAPGQEREFVAAIDAFGINTYYADSAKGRFTISRDSAKNTVYLQMNSLKPEDTAVYYCAATLRGTQPGAVMQWRPDYWGQGTQVTVSS
notes: as for B1
B15: Nb8206 (VHH)
VHH: QVQLQESGGGLVQPGGSLRLSCTASGGIFGISAMGWYRQAPGKERELVARITRSGSTNFADSVKDRFTISRDATENTVVLQMNSLKAEDTAVYYCNGQFWEVDNGNIDLWGQGTQVTVSS
notes: as for B1
B16: Nb8207 (VHH)
VHH: QVQLQESGGGLVQAGASLRLSCTASGRTSSTYPMGWFRQGPGKEREFVAAISWAGSSTYYGDFVKGRFTISRDNAKNTVYLQMNSLKPEDTAVYYCARAARPYAYGLDYSTEASYDYWGQGTQVTVSS
notes: as for B1
B17: Nb8205 (VHH)
chain: QVQLQESGGGMVQPGGSLRLSCLASGFTFSNYAMTWVRQAPGKGPEWVSMVSNNGADTTYTDSVKGRFTISRDNAKNTLYLRMNNVKPEDSAVYYCAKRRYGGIWTGQPTDYDYLGQGTVTVSS
B18: RNA polymerase of influenza A/Brevig Mission/1/1918 (H1N1) virus, heterotrimer of PA, PB1 and PB2 (complex)
chain 1: […]
chain 2: MDVNPTLLFLKVPAQNAISTTFPYTGDPPYSHGTGTGYTMDTVNRTHQYSEKGRWTTNTETGAPQLNPIDGPLPEDNEPSGYAQTDCVLEAMAFLEESHPGIFENSCLETMEVVQQTRVDKLTQGRQTYDWTLNRNQPAATALANTIEVFRSNGLTANESGRLIDFLKDVMESMDKEEMEITTHFQRKRRVRDNMTKKMVTQRTIGKKKQRLNKRSYLIRALTLNTMTKDAERGKLKRRAIATPGMQIRGFVYFVETLARSICEKLEQSGLPVGGNEKKAKLANVVRKMMTNSQDTELSFTITGDNTKWNENQNPRMFLAMITYITRNQPEWFRNVLSIAPIMFSNKMARLGKGYMFESKSMKLRTQIPAEMLASIDLKYFNDSTRKKIEKIRPLLIDGTASLSPGMMMGMFNMLSTVLGVSILNLGQKRYTKTTYWWDGLQSSDDFALIVNAPNHEGIQAGVDRFYRTCKLLGINMSKKKSYINRTGTFEFTSFFYRYGFVANFSMELPSFGVSGINESADMSIGVTVIKNNMINNDLGPATAQMALQLFIKDYRYTYRCHRGDTQIQTRRSFEIKKLWEQTRSKAGLLVSDGGPNLYNIRNLHIPEVCLKWELMDEDYQGRLCNPLNPFVSHKEIESVNNAVMMPAHGPAKNMEYDAVATTHSWIPKRNRSILNTSQRGILEDEQMYQKCCNLFEKFFPSSSYRRPVGISSMVEAMVSRARIDARIDFESGRIKKEEFAEIMKICSTIEELRRQK
chain 3: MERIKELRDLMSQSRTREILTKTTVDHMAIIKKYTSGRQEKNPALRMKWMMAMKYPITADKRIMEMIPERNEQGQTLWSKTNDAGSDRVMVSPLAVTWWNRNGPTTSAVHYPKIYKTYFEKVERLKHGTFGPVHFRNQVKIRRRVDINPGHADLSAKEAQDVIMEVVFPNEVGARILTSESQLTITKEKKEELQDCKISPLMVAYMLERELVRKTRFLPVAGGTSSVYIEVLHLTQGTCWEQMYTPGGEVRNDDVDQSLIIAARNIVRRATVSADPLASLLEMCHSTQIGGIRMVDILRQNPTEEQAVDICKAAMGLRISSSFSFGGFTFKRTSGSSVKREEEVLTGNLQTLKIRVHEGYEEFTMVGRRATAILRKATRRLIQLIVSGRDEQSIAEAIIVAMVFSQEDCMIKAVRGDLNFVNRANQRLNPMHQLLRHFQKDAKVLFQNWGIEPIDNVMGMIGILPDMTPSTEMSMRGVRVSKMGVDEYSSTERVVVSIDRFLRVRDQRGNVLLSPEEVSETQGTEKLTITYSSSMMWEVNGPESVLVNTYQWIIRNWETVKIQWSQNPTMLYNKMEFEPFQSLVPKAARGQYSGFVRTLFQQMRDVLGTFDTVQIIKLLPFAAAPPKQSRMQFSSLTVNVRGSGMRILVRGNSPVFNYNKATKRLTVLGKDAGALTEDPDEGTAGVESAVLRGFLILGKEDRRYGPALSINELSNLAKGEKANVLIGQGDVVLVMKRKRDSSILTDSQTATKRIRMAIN
notes: also called 1918 polymerase; 1918 pandemic influenza virus polymerase; copies: + +
B19: polymerase basic 2 (PB2) subunit of influenza A/Brevig Mission/1/1918 (H1N1) virus (natural protein)
chain: B18 chain 3
notes: the PB2 chain of m1
B20: Nb8197 (VHH)
VHH: QVQLQESGGGLVQPGGSLRLSCAASGFTFSSYAMSWVRQAPGKGLEWVSSITSAFGRTSYVSSVKGRFTISRDNAKNTLYLQMNSLKPEDTAVYYCAQGASWPYRYRGQGTQVTVSS
B21: Nb8194 (VHH)
VHH: QVQLQESGGGLVQPGGSLRLSCAASGFTFSNYYMSWVRQAPGEGREWVSSINRDGSNTYYADSVKGRFTIARDNVKNTLYLLMDSLKSDDTAVYYCTKGSNWPYDNWGQGTQVTVSS
notes: as for B1
B22: Nb8208 (VHH)
VHH: QVQLQESGGGLVQPGGSLRLSCAASGRTFSMYAMAWFRQAPGKQREFVGTISRSGDYALHADAVKGRFTISRDNAKNTVYLQMNSLKLEDTAVYYCAAGAYHSKDKTLYDYWGQGTQVTVSS
notes: as for B1
B23: Nb8193 (VHH)
VHH: QVQLQESGGGLVQPGGSLRLSCAASGFTFKMYAMSWVRQAPGKGLEWVSSINSAGGSTSYVDSVKGRFTISRDNAKNTLYLQMNSLKPDDTAVYYCVQGRNWPYDYRGQGTQVTVSS
notes: as for B1

Molecular target: T1, RNA polymerase of influenza A/Brevig Mission/1/1918 (H1N1) virus, heterotrimer of PA, PB1 and PB2 (influenza A/Brevig Mission/1/1918 …, UniProt Q3HM39;Q3HM40;Q3HM41)
T1 construct: also called 1918 polymerase; 1918 pandemic influenza virus polymerase; copies: + +
Experiment: cryo-EM structure
Settings: both partners purified

Does B1 bind?
Result: binds

Does B2 bind?
Result: binds

Does B3 bind?
Result: binds

Does B4 bind?
Result: binds

Does B5 bind?
Result: binds

Does B6 bind?
Result: binds

Does B7 bind?
Result: binds

Does B8 bind?
Result: binds

Does B9 bind?
Result: binds

Does B10 bind?
Result: binds

Does B11 bind?
Result: binds

Does B12 bind?
Result: binds

Does B13 bind?
Result: binds

Does B14 bind?
Result: binds

Does B15 bind?
Result: binds

Does B16 bind?
Result: binds

Does B17 bind?
Result: binds

Molecular target: the molecule itself
Experiment: cryo-EM structure
Settings: not given

Does B18 bind?
Result: binds

Molecular target: T2, polymerase acidic (PA) subunit of influenza A/Brevig Mission/1/1918 (H1N1) virus (influenza A/Brevig Mission/1/1918 …, UniProt Q3HM39)
T2 construct: the PA chain of m1
Experiment: cryo-EM structure
Settings: both partners purified

Does B19 bind?
Result: binds

Molecular target: T3, PB2 cap-mid-link construct (cap-binding and mid-link domains) from influenza A/duck/Fujian/01/2002 (H5N1) (Influenza A virus …)
Experiment: not given
Settings: not given

Does B20 bind?
Result: binds

Molecular target: T3, PB2 cap-mid-link construct (cap-binding …)
Experiment: SEC
Settings: both partners purified

Does B21 bind?
Result: binds

Does B22 bind?
Result: binds

Does B23 bind?
Result: binds

Source: article PMC8752864 (Nature Communications, 2022)
